{"source": "paper PMC9734383", "about": "(Nature Communications, 2022)", "key": {"H3 HA": {"target": "H3 HA (Influenza A virus H3N2, probably A/Hong …, UniProt Q91MA7, strain)", "test": "SEC", "details": "both partners purified"}, "[1]": {"target": "H3 HA (recombinant HA of the panel) (Influenza A virus H3N2, probably A/Hong …, UniProt Q91MA7, biotinylated (in the BLI assay))", "test": "BLI", "details": "both partners purified"}}}
{"binder": "PN-SIA28 Fab (Fab, V domains shown) VH: QVQLVESGGGVVQPGRSLRLSCAASGFPFSSYGMHWVRQAPGKGLEWVAGVSYDGSYKYYADSVKGRFTISRDSSKSTLYLQMNSLRPEDTAVYYCARPSAIFGIYIILNGLDVWGQGTTVTVSS VL: EIVLTQSPSSVSASVGDRVTITCRATQGISSWLAWYQQKPGKPPKLLIFGASSLQSGVPSRFSGSGSGTDFTLTISSLQPEDFATYFCQQAHSFPLTFGGGTKVEIK", "values": [{"measurement": "binding result", "setting": "H3 HA", "value": "binds"}]}
{"binder": "PN-SIA28 Fab (Fab, V domains shown, also called PN-SIA28 Fab fragment) VH: QVQLVESGGGVVQPGRSLRLSCAASGFPFSSYGMHWVRQAPGKGLEWVAGVSYDGSYKYYADSVKGRFTISRDSSKSTLYLQMNSLRPEDTAVYYCARPSAIFGIYIILNGLDVWGQGTTVTVSS VL: EIVLTQSPSSVSASVGDRVTITCRATQGISSWLAWYQQKPGKPPKLLIFGASSLQSGVPSRFSGSGSGTDFTLTISSLQPEDFATYFCQQAHSFPLTFGGGTKVEIK", "values": [{"measurement": "binding result", "setting": "[1]", "value": "binds"}]}
